± gives the uncertainty stated by the source.
Experiment: self-splicing fitness, log relative to wild type (ln ratio); higher = more splicing; Tetrahymena group I intron in knt gene, E. coli kanamycin selection, DiMSum; sequences stand for … in CUCUCU…GGAGGGAAAAGUUAUCAGGCAUGCACCUGGUAGCUAGUCUUUAAACCAAUAGAUUGCAUCGGUUUAAAAGGCAAGACCGUCAAAUUGCGGGAAAGGGGUCAACAGCCGUUCAGUACCAAGUCUCAGGGGAAACUUUGAGAUGGCCUUGCAAAGGGUAUGGUAAUAAGCUGACGGACAUGGUCCUAACCACGCAGCCAAGUCCUAAGUCAACAGAUCUUCUGUUGAUAUGGAUGCAGUUCACAGACUAAAUGUCGGUCGGGGAAGAUGUAUUCUUCUCAUAAGAUAUAGUCGGACCUCUCCUUAAUGGGAGCUAGCGGAUGAAGUGAUGCAACACUGGAGCCGCUGGGAACUAAUUUGUAUGCGAAAGUAUAUUGAUUAGUUUUGGAGUACUCGUGGUCG
Summary of the method: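 Fitness was computed with DiMSum as the error-weighted combination of replicate fold changes, kanamycin versus none, each normalised to wild type. The library randomised all eight intron nucleotides of the P1ex region, with the intron placed in the knt kanamycin-resistance gene on pET-22b(+) in E. coli BL21(DE3). Six replicate transformations were grown overnight at 37°C or 30°C on LB agar with or without 25 μg/mL kanamycin, plus 100 μg/mL carbenicillin, 50 μM IPTG and 0.2% rhamnose. Pooled colonies were amplicon-sequenced on an Illumina HiSeq 2500.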

In the case of ACAAAGCAAUAUUACGCAUU, the “self-splicing fitness (ln)” value (30 °C) is reported as -3.06 ± 0.095 and the “self-splicing fitness (ln)” value (37 °C) is reported as -1.56 ± 0.082.
With AGGAAGCAAUAUUACGCUCU the “self-splicing fitness (ln)” value (30 °C) was -2.56 ± 0.22 and the “self-splicing fitness (ln)” value (37 °C) was -1.99 ± 0.29.
For AUUUAGCAAUAUUACGGUUC, the “self-splicing fitness (ln)” value (37 °C) was -3.23 ± 0.43.
In the case of GGGAAGCAAUAUUACGACUU, the “self-splicing fitness (ln)” value (30 °C) is reported as 0.323 ± 0.11 and the “self-splicing fitness (ln)” value (37 °C) is reported as -0.202 ± 0.15.
With AGGUAGCAAUAUUACGGCAU the “self-splicing fitness (ln)” value (30 °C) was -0.129 ± 0.014 and the “self-splicing fitness (ln)” value (37 °C) was 0.107 ± 0.033.
In the case of CAAAAGCAAUAUUACGGCGU, the “self-splicing fitness (ln)” value (30 °C) is reported as -1.23 ± 0.069 and the “self-splicing fitness (ln)” value (37 °C) is reported as -0.3 ± 0.086.
In the case of GUGAAGCAAUAUUACGGGAG, the “self-splicing fitness (ln)” value (30 °C) is reported as -2.09 ± 0.1 and the “self-splicing fitness (ln)” value (37 °C) is reported as -0.567 ± 0.094.
In the case of ACCGAGCAAUAUUACGAGGU, the “self-splicing fitness (ln)” value (30 °C) is reported as -2.42 ± 0.23 and the “self-splicing fitness (ln)” value (37 °C) is reported as -0.758 ± 0.2.
With AAAUAGCAAUAUUACGACGU the “self-splicing fitness (ln)” value (30 °C) was 0.194 ± 0.083 and the “self-splicing fitness (ln)” value (37 °C) was -0.646 ± 0.074.
In the case of AAGCAGCAAUAUUACGCGCU, the “self-splicing fitness (ln)” value (30 °C) is reported as -2.53 ± 0.11 and the “self-splicing fitness (ln)” value (37 °C) is reported as -1.73 ± 0.11.
With AUACAGCAAUAUUACGGGAC the “self-splicing fitness (ln)” value (30 °C) was -2.14 ± 0.15 and the “self-splicing fitness (ln)” value (37 °C) was -1.74 ± 0.17.
In the case of GUUGAGCAAUAUUACGCUAU, the “self-splicing fitness (ln)” value (30 °C) is reported as -2.06 ± 0.35 and the “self-splicing fitness (ln)” value (37 °C) is reported as -2.66 ± 0.46.
For CUUCAGCAAUAUUACGACUG, the “self-splicing fitness (ln)” value (30 °C) was -0.803 ± 0.077 and the “self-splicing fitness (ln)” value (37 °C) was -0.505 ± 0.092.
In the case of CUGGAGCAAUAUUACGUCCG, the “self-splicing fitness (ln)” value (30 °C) is reported as -2.17 ± 0.16 and the “self-splicing fitness (ln)” value (37 °C) is reported as -0.559 ± 0.15.
For UACCAGCAAUAUUACGCGGA, the “self-splicing fitness (ln)” value (30 °C) was -1.69 ± 0.079 and the “self-splicing fitness (ln)” value (37 °C) was -1.04 ± 0.082.
In the case of AAUCAGCAAUAUUACGUAAC, the “self-splicing fitness (ln)” value (30 °C) is reported as -1.33 ± 0.11 and the “self-splicing fitness (ln)” value (37 °C) is reported as -0.141 ± 0.11.
For UCGAAGCAAUAUUACGCGAU, the “self-splicing fitness (ln)” value (30 °C) was -3.31 ± 0.32.
With UGCAAGCAAUAUUACGCAAU the “self-splicing fitness (ln)” value (30 °C) was -3.55 ± 0.4 and the “self-splicing fitness (ln)” value (37 °C) was -2.06 ± 0.32.
With AUAUAGCAAUAUUACGGGUC the “self-splicing fitness (ln)” value (30 °C) was -4.55 ± 0.46 and the “self-splicing fitness (ln)” value (37 °C) was -2.17 ± 0.25.
For UCUCAGCAAUAUUACGCUCU, the “self-splicing fitness (ln)” value (30 °C) was -3.26 ± 0.26 and the “self-splicing fitness (ln)” value (37 °C) was -2.68 ± 0.41.
In the case of AUAUAGCAAUAUUACGGCAU, the “self-splicing fitness (ln)” value (30 °C) is reported as -0.195 ± 0.089 and the “self-splicing fitness (ln)” value (37 °C) is reported as 0.155 ± 0.12.
In the case of AGAUAGCAAUAUUACGUGGG, the “self-splicing fitness (ln)” value (30 °C) is reported as -2.85 ± 0.15 and the “self-splicing fitness (ln)” value (37 °C) is reported as -2.49 ± 0.19.
In the case of AUGAAGCAAUAUUACGGCAU, the “self-splicing fitness (ln)” value (30 °C) is reported as -0.0745 ± 0.047 and the “self-splicing fitness (ln)” value (37 °C) is reported as 0.444 ± 0.063.
For AUAUAGCAAUAUUACGACGU, the “self-splicing fitness (ln)” value (30 °C) was 0.51 ± 0.13 and the “self-splicing fitness (ln)” value (37 °C) was 0.433 ± 0.17.
In the case of CUGGAGCAAUAUUACGCUCG, the “self-splicing fitness (ln)” value (30 °C) is reported as -1.13 ± 0.18.
With CACCAGCAAUAUUACGGGUU the “self-splicing fitness (ln)” value (30 °C) was -1.82 ± 0.056 and the “self-splicing fitness (ln)” value (37 °C) was -1.68 ± 0.081.
With CUCGAGCAAUAUUACGCUAU the “self-splicing fitness (ln)” value (30 °C) was -2.92 ± 0.26 and the “self-splicing fitness (ln)” value (37 °C) was -2.8 ± 0.26.
In the case of UGCAAGCAAUAUUACGCACG, the “self-splicing fitness (ln)” value (30 °C) is reported as -2.14 ± 0.3 and the “self-splicing fitness (ln)” value (37 °C) is reported as -0.955 ± 0.13.
In the case of AAACAGCAAUAUUACGGCCU, the “self-splicing fitness (ln)” value (30 °C) is reported as -1.51 ± 0.064 and the “self-splicing fitness (ln)” value (37 °C) is reported as -0.591 ± 0.071.
In the case of UAAUAGCAAUAUUACGGACU, the “self-splicing fitness (ln)” value (30 °C) is reported as -1.25 ± 0.15 and the “self-splicing fitness (ln)” value (37 °C) is reported as -1.43 ± 0.18.
For AUAAAGCAAUAUUACGACCU, the “self-splicing fitness (ln)” value (30 °C) was -0.0242 ± 0.097 and the “self-splicing fitness (ln)” value (37 °C) was 0.381 ± 0.12.
For AGGCAGCAAUAUUACGCCUC, the “self-splicing fitness (ln)” value (30 °C) was -3.08 ± 0.33.
In the case of GUGGAGCAAUAUUACGGUAA, the “self-splicing fitness (ln)” value (30 °C) is reported as -2.05 ± 0.11 and the “self-splicing fitness (ln)” value (37 °C) is reported as -2.95 ± 0.19.
With AACAAGCAAUAUUACGUCUU the “self-splicing fitness (ln)” value (30 °C) was -0.312 ± 0.057 and the “self-splicing fitness (ln)” value (37 °C) was 0.0818 ± 0.077.
For CCUGAGCAAUAUUACGUUAC, the “self-splicing fitness (ln)” value (30 °C) was -3.52 ± 0.26 and the “self-splicing fitness (ln)” value (37 °C) was -3.09 ± 0.36.
For AAAAAGCAAUAUUACGGUGG, the “self-splicing fitness (ln)” value (30 °C) was -2.28 ± 0.1 and the “self-splicing fitness (ln)” value (37 °C) was -1.77 ± 0.13.
In the case of CUUAAGCAAUAUUACGGUCU, the “self-splicing fitness (ln)” value (30 °C) is reported as -4.28 ± 0.26 and the “self-splicing fitness (ln)” value (37 °C) is reported as -2.64 ± 0.29.
In the case of UUGUAGCAAUAUUACGUAAU, the “self-splicing fitness (ln)” value (30 °C) is reported as -2.9 ± 0.22 and the “self-splicing fitness (ln)” value (37 °C) is reported as -2.37 ± 0.24.
With UGGUAGCAAUAUUACGGAAA the “self-splicing fitness (ln)” value (30 °C) was -1.86 ± 0.28 and the “self-splicing fitness (ln)” value (37 °C) was -1.81 ± 0.24.
With CGGGAGCAAUAUUACGCACC the “self-splicing fitness (ln)” value (30 °C) was -3.47 ± 0.39.
For AUAGAGCAAUAUUACGACCC, the “self-splicing fitness (ln)” value (30 °C) was -2.56 ± 0.47 and the “self-splicing fitness (ln)” value (37 °C) was -1.4 ± 0.42.
With UGACAGCAAUAUUACGAUGU the “self-splicing fitness (ln)” value (30 °C) was -4.14 ± 0.17 and the “self-splicing fitness (ln)” value (37 °C) was -2.28 ± 0.14.
For AUAAAGCAAUAUUACGGGCA, the “self-splicing fitness (ln)” value (30 °C) was -0.434 ± 0.077 and the “self-splicing fitness (ln)” value (37 °C) was -0.368 ± 0.08.
In the case of CGCAAGCAAUAUUACGGAAA, the “self-splicing fitness (ln)” value (30 °C) is reported as -2.31 ± 0.33 and the “self-splicing fitness (ln)” value (37 °C) is reported as -2.5 ± 0.2.
In the case of AUGGAGCAAUAUUACGCCAC, the “self-splicing fitness (ln)” value (30 °C) is reported as -2.95 ± 0.41.
For CAAGAGCAAUAUUACGGGAU, the “self-splicing fitness (ln)” value (30 °C) was -2.97 ± 0.17 and the “self-splicing fitness (ln)” value (37 °C) was -2.59 ± 0.31.
In the case of UCAAAGCAAUAUUACGCUAG, the “self-splicing fitness (ln)” value (30 °C) is reported as -1.25 ± 0.076 and the “self-splicing fitness (ln)” value (37 °C) is reported as -1.29 ± 0.1.
With AAAUAGCAAUAUUACGCAGA the “self-splicing fitness (ln)” value (30 °C) was -2.07 ± 0.26.
For UGAAAGCAAUAUUACGGUAU, the “self-splicing fitness (ln)” value (30 °C) was -2.53 ± 0.21 and the “self-splicing fitness (ln)” value (37 °C) was -0.827 ± 0.16.
With CCCUAGCAAUAUUACGUUUC the “self-splicing fitness (ln)” value (30 °C) was -3.32 ± 0.17 and the “self-splicing fitness (ln)” value (37 °C) was -2.24 ± 0.19.

Reference: the supplement of paper PMC7877785
